Stoichiometry N data for three substances are collected here from PMC10713589.

The target of experiment [1] is Full-length VEX1 tagged with 12xmyc at the C-terminus at the native locus (Trypanosoma brucei). Briefly: SEC; trypanosome extracts (1% CHAPS in PBS, micrococcal nuclease treated) on a BioBasic SEC 1000 column at 5 °C, elution in 0.3% CHAPS in PBS; fractions analysed by anti-myc protein blot; calibrated with thyroglobulin, ferritin, BSA and myoglobin. In general terms: SEC sorts molecules by how far they enter the pores of the column.

In experiment [2] the target is VSG exclusion factor 2 (VEX2) with an N-terminal 6x c-myc tag, tagged at the native locus (T. brucei). Briefly: native gel or EMSA; blue native PAGE (3-12% gradient, 4 °C) of digitonin lysates treated with micrococcal nuclease, blotted for the myc-tagged protein; with and without knockdown of VEX1, VEX2 or CAF-1. In general terms: Mobility shift assays separate free from complexed probe on a gel.

Experiment [3] concerns the target VSG exclusion factor 1 (VEX1), full length, with a C-terminal 12xmyc tag at the native locus (T. brucei). The description is as above.

Values joined by “and” are separate entries in the source; they are usually repeats but may differ in a detail not shown here. Identical values can stand only once.

As a reminder, the stoichiometry N is the number of molecules, sites or subunits per partner or assembly. Consider “Full-length VEX1 tagged with 12xmyc at the C-terminus at the native locus (natural protein)”, for which the stoichiometry N in experiment [1] is 2.
For the substance “VSG exclusion factor 2 (VEX2) with an N-terminal 6x c-myc tag, tagged at the native locus (natural protein)”, the stoichiometry N in experiment [2] was 2 and 6.
With “VSG exclusion factor 1 (VEX1), full length, with a C-terminal 12xmyc tag at the native locus (natural protein)”, in experiment [3], the stoichiometry N was 2.
